Experimental data: patent US12528864 (GlaxoSmithKline, dated 2026)

How the values were obtained:
[1] = target: T1, cynomolgus monkey CD96, native, on primary cynomolgus monkey T cells (cynomolgus monkey, UniProt A0A2K5TWV6 22-569); assay: flow cytometry on activated cynomolgus monkey T cells, donor 2
T1 construct: whole, on cells
T1 sequence: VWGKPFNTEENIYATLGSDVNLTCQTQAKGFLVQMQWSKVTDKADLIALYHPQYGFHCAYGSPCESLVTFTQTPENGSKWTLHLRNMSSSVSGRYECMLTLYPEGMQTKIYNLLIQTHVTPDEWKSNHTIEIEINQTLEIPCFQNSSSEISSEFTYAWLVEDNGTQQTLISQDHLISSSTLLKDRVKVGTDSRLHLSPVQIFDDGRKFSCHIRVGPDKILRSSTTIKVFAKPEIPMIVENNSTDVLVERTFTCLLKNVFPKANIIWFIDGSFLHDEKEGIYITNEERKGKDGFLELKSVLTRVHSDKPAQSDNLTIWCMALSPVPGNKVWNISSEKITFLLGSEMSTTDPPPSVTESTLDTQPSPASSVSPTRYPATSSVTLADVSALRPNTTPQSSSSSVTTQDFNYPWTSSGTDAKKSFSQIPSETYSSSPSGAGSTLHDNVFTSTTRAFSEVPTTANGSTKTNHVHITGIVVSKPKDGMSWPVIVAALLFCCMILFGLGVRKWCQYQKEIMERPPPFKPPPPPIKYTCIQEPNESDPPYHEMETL

[2] = target: T2, cynomolgus monkey CD96v2 expressed on cells (CHO cells; transiently transfected HEK cells) (cynomolgus monkey, UniProt A0A2K5TWV6 22-569); assay: flow cytometry on transiently transfected HEK cells (Cyno CD96v2)
T2 construct: the cell is named under assay; also called CHO-cyCD96; Cyno CD96v2
T2 sequence: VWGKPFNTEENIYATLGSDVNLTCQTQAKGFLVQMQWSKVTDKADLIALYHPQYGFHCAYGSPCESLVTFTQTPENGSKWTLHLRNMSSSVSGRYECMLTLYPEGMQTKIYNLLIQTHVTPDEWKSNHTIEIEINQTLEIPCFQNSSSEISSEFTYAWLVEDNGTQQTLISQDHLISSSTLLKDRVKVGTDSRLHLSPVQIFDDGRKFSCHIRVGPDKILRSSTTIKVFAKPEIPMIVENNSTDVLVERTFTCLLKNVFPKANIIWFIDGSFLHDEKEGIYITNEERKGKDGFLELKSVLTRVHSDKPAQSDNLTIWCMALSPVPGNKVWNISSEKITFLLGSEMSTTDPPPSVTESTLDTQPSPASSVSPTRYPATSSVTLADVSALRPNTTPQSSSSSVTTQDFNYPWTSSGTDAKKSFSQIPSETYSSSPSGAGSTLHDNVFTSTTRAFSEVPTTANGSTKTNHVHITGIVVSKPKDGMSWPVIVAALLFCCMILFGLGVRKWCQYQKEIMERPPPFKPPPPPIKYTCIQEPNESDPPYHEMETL

[3] = target: T3, human CD96v1 on transiently transfected HEK cells (human, UniProt P40200 22-585); assay: flow cytometry on transiently transfected HEK cells (Human CD96v1)
T3 construct: whole, on cells
T3 sequence (looked up): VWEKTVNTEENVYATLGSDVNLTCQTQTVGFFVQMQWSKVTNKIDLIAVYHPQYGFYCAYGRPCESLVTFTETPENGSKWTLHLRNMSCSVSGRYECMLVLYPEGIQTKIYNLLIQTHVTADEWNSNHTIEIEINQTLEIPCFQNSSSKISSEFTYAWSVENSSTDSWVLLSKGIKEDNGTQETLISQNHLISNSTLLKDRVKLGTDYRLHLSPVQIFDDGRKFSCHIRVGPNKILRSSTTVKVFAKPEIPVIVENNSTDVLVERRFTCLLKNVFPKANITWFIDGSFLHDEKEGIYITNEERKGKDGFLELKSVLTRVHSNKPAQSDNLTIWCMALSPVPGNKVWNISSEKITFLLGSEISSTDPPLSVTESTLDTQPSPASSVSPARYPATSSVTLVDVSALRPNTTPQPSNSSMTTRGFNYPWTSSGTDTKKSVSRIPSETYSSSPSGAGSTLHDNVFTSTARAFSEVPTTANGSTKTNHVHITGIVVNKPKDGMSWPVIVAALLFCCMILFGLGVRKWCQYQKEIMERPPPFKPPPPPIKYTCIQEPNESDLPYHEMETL

[4] = target: T4, human CD96v2 expressed on cells (CHO cells; transiently transfected HEK cells) (human, UniProt P40200-2 22-569); assay: flow cytometry on transiently transfected HEK cells (Human CD96v2)
T4 construct: whole, on cells; the cell is named under assay; also called CHO-huCD96; hCD96v2
T4 sequence (looked up): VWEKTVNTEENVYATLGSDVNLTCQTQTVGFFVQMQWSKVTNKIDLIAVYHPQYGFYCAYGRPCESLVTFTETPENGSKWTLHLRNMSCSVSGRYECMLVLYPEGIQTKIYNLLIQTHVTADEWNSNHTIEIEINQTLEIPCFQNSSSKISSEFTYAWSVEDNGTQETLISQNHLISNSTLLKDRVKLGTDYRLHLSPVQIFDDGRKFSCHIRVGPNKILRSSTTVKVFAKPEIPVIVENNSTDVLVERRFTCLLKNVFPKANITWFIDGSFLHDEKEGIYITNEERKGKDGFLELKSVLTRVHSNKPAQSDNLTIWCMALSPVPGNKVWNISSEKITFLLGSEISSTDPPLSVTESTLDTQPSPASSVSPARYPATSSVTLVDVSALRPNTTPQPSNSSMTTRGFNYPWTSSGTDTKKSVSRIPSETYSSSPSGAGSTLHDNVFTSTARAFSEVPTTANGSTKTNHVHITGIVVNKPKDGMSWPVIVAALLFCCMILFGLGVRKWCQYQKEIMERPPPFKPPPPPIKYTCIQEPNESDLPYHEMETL

[5] = target: T4, human CD96v2 expressed on cells (CHO …); assay: flow cytometry on transiently transfected HEK cells; upper end of range, n = 3
[6] = target: T2, cynomolgus monkey CD96v2 expressed on …; assay: as above
[7] = target: T3, human CD96v1 on transiently transfected …; assay: as above
[8] = target: T5, cynomolgus monkey CD96v1 on transiently transfected HEK cells (cynomolgus monkey); assay: as above
T5 construct: whole, on cells; also called Cyno CD96v1

[9] = target: T6, blood derived cynomolgus monkey CD96v2 on transiently transfected HEK cells (cynomolgus monkey); assay: as above
T6 construct: also called Blood derived Cyno CD96v2

[10] = target: T4, human CD96v2 expressed on cells (CHO …); assay: flow cytometry, inhibition of human CD155-Fc-AF647 binding to CHO cells expressing human CD96v2; competitor CD155-Fc

B1: 42Y073-86F08-66 (antibody)
heavy: not shown
light: DIQLTQSPSSLSASVGDRVTITCRASQSISSYLNWYQQKPGKAPKLLIYAASSLQSGVPSRFSGSGSGTDFTLTISSLQPEDFATYYCQQVLHTITFGGGTKVEIKRTVAAPSVFIFPPSDEQLKSGTASVVCLLNNFYPREAKVQWKVDNALQSGNSQESVTEQDSKDSTYSLSSTLTLSKADYEKHKVYACEVTHQGLSSPVTKSFNRGEC
notes: also called GSK 6097608; GSK6097608
In the case of B1, the “EC50 (read off the curve)” value [1] is reported as roughly 0.1 nM, the “EC50 (read off the curve)” value [2] is reported as roughly 6 nM and the “EC50 (read off the curve)” value [3] is reported as roughly 7 nM. The “EC50 (read off the curve)” value [4] was roughly 6 nM, the EC50 [5] was 8.78 nM and the EC50 [6] was 11.2 nM. For the same binder, the EC50 [7] was 8.89 nM, the EC50 [8] was 12.3 nM and the EC50 [9] was 10.2 nM. The IC50 [10] was 1.55 nM.
